In the assay the target is macrophage mannose receptor on murine macrophage cell line J774E (murine) (UniProt Q61830). In words: cell-based or functional assay.

From patent publication US20040009165A1 come the findings set out here.

As to “Cerezyme (recombinantly produced glucocerebrosidase) (from UniProt P04062 40-536) (enzyme)”, the Vmax for uptake in J774E cells stood at 0.518.

As to “pGC54: GCB-GGGG linker-Saposin C fusion protein (enzyme)”, the Vmax for uptake in J774E cells worked out at 0.871.
